The labels stand for the following.
T1: Ep-CAM (UniProt P16422 24-265, limits assumed)
T1 construct: Amine coupled to a CM5 chip in the Biacore assays
T1 sequence (looked up): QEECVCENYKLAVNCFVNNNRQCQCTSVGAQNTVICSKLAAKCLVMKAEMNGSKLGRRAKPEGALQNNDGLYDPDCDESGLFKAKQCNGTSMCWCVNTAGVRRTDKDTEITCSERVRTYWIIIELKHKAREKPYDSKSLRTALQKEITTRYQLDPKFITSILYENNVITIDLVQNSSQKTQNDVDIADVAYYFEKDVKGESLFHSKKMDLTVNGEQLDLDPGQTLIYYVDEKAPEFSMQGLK

B1: ING-1 light chain R101N (Fab, V domains shown)
VH: QIQLVQSGPELKKPGETVKISCKASGYTFTKYGMNWVKQAPGKGLKWMGWINTYTEEPTYGDDFKGRFAFSLETSASTANLQINNLKSEDTATYFCARFGSAVDYWGQGTSVTVSS
VL: DIVMTQAAFSNPVTLGTSGSISCRSSKSLLHSNGITYLYWYLQKPGQSPQLLIYQMSNLASGVPDRFSSSGSGTDFTLRISRVEAEDVGVYYCAQNLELPNTFGGGTKLEMKR
notes: Fab, periplasmic extract
B2: ING-1 light chain Y54N (Fab, V domains shown)
VH: QIQLVQSGPELKKPGETVKISCKASGYTFTKYGMNWVKQAPGKGLKWMGWINTYTEEPTYGDDFKGRFAFSLETSASTANLQINNLKSEDTATYFCARFGSAVDYWGQGTSVTVSS
VL: DIVMTQAAFSNPVTLGTSGSISCRSSKSLLHSNGITYLYWYLQKPGQSPQLLINQMSNLASGVPDRFSSSGSGTDFTLRISRVEAEDVGVYYCAQNLELPRTFGGGTKLEMKR
notes: Fab, periplasmic extract
B3: ING-1 light chain Y37N (Fab, V domains shown)
VH: QIQLVQSGPELKKPGETVKISCKASGYTFTKYGMNWVKQAPGKGLKWMGWINTYTEEPTYGDDFKGRFAFSLETSASTANLQINNLKSEDTATYFCARFGSAVDYWGQGTSVTVSS
VL: DIVMTQAAFSNPVTLGTSGSISCRSSKSLLHSNGITNLYWYLQKPGQSPQLLIYQMSNLASGVPDRFSSSGSGTDFTLRISRVEAEDVGVYYCAQNLELPRTFGGGTKLEMKR
notes: Fab, periplasmic extract
B4: ING-1 light chain T36R (Fab, V domains shown)
VH: QIQLVQSGPELKKPGETVKISCKASGYTFTKYGMNWVKQAPGKGLKWMGWINTYTEEPTYGDDFKGRFAFSLETSASTANLQINNLKSEDTATYFCARFGSAVDYWGQGTSVTVSS
VL: DIVMTQAAFSNPVTLGTSGSISCRSSKSLLHSNGIRYLYWYLQKPGQSPQLLIYQMSNLASGVPDRFSSSGSGTDFTLRISRVEAEDVGVYYCAQNLELPRTFGGGTKLEMKR
notes: Fab, periplasmic extract
B5: ING-1 light chain T36D (Fab, V domains shown)
VH: QIQLVQSGPELKKPGETVKISCKASGYTFTKYGMNWVKQAPGKGLKWMGWINTYTEEPTYGDDFKGRFAFSLETSASTANLQINNLKSEDTATYFCARFGSAVDYWGQGTSVTVSS
VL: DIVMTQAAFSNPVTLGTSGSISCRSSKSLLHSNGIDYLYWYLQKPGQSPQLLIYQMSNLASGVPDRFSSSGSGTDFTLRISRVEAEDVGVYYCAQNLELPRTFGGGTKLEMKR
notes: Fab, periplasmic extract
B6: ING-1 light chain S28N (Fab, V domains shown)
VH: QIQLVQSGPELKKPGETVKISCKASGYTFTKYGMNWVKQAPGKGLKWMGWINTYTEEPTYGDDFKGRFAFSLETSASTANLQINNLKSEDTATYFCARFGSAVDYWGQGTSVTVSS
VL: DIVMTQAAFSNPVTLGTSGSISCRSSKNLLHSNGITYLYWYLQKPGQSPQLLIYQMSNLASGVPDRFSSSGSGTDFTLRISRVEAEDVGVYYCAQNLELPRTFGGGTKLEMKR
notes: Fab, periplasmic extract
B7: ING-1 light chain Y37S (Fab, V domains shown)
VH: QIQLVQSGPELKKPGETVKISCKASGYTFTKYGMNWVKQAPGKGLKWMGWINTYTEEPTYGDDFKGRFAFSLETSASTANLQINNLKSEDTATYFCARFGSAVDYWGQGTSVTVSS
VL: DIVMTQAAFSNPVTLGTSGSISCRSSKSLLHSNGITSLYWYLQKPGQSPQLLIYQMSNLASGVPDRFSSSGSGTDFTLRISRVEAEDVGVYYCAQNLELPRTFGGGTKLEMKR
notes: Fab, periplasmic extract
B8: ING-1 light chain Y54D (Fab, V domains shown)
VH: QIQLVQSGPELKKPGETVKISCKASGYTFTKYGMNWVKQAPGKGLKWMGWINTYTEEPTYGDDFKGRFAFSLETSASTANLQINNLKSEDTATYFCARFGSAVDYWGQGTSVTVSS
VL: DIVMTQAAFSNPVTLGTSGSISCRSSKSLLHSNGITYLYWYLQKPGQSPQLLIDQMSNLASGVPDRFSSSGSGTDFTLRISRVEAEDVGVYYCAQNLELPRTFGGGTKLEMKR
notes: Fab, periplasmic extract
B9: ING-1 light chain Y37Q (Fab, V domains shown)
VH: QIQLVQSGPELKKPGETVKISCKASGYTFTKYGMNWVKQAPGKGLKWMGWINTYTEEPTYGDDFKGRFAFSLETSASTANLQINNLKSEDTATYFCARFGSAVDYWGQGTSVTVSS
VL: DIVMTQAAFSNPVTLGTSGSISCRSSKSLLHSNGITQLYWYLQKPGQSPQLLIYQMSNLASGVPDRFSSSGSGTDFTLRISRVEAEDVGVYYCAQNLELPRTFGGGTKLEMKR
notes: Fab, periplasmic extract
B10: ING-1 light chain R101Q (Fab, V domains shown)
VH: QIQLVQSGPELKKPGETVKISCKASGYTFTKYGMNWVKQAPGKGLKWMGWINTYTEEPTYGDDFKGRFAFSLETSASTANLQINNLKSEDTATYFCARFGSAVDYWGQGTSVTVSS
VL: DIVMTQAAFSNPVTLGTSGSISCRSSKSLLHSNGITYLYWYLQKPGQSPQLLIYQMSNLASGVPDRFSSSGSGTDFTLRISRVEAEDVGVYYCAQNLELPQTFGGGTKLEMKR
notes: Fab, periplasmic extract
B11: ING-1 light chain R101Y (Fab, V domains shown)
VH: QIQLVQSGPELKKPGETVKISCKASGYTFTKYGMNWVKQAPGKGLKWMGWINTYTEEPTYGDDFKGRFAFSLETSASTANLQINNLKSEDTATYFCARFGSAVDYWGQGTSVTVSS
VL: DIVMTQAAFSNPVTLGTSGSISCRSSKSLLHSNGITYLYWYLQKPGQSPQLLIYQMSNLASGVPDRFSSSGSGTDFTLRISRVEAEDVGVYYCAQNLELPYTFGGGTKLEMKR
notes: Fab, periplasmic extract
B12: ING-1 light chain S57Y (Fab, V domains shown)
VH: QIQLVQSGPELKKPGETVKISCKASGYTFTKYGMNWVKQAPGKGLKWMGWINTYTEEPTYGDDFKGRFAFSLETSASTANLQINNLKSEDTATYFCARFGSAVDYWGQGTSVTVSS
VL: DIVMTQAAFSNPVTLGTSGSISCRSSKSLLHSNGITYLYWYLQKPGQSPQLLIYQMYNLASGVPDRFSSSGSGTDFTLRISRVEAEDVGVYYCAQNLELPRTFGGGTKLEMKR
notes: Fab, periplasmic extract
B13: ING-1 light chain Y54E (Fab, V domains shown)
VH: QIQLVQSGPELKKPGETVKISCKASGYTFTKYGMNWVKQAPGKGLKWMGWINTYTEEPTYGDDFKGRFAFSLETSASTANLQINNLKSEDTATYFCARFGSAVDYWGQGTSVTVSS
VL: DIVMTQAAFSNPVTLGTSGSISCRSSKSLLHSNGITYLYWYLQKPGQSPQLLIEQMSNLASGVPDRFSSSGSGTDFTLRISRVEAEDVGVYYCAQNLELPRTFGGGTKLEMKR
notes: Fab, periplasmic extract
B14: ING-1 light chain R101S (Fab, V domains shown)
VH: QIQLVQSGPELKKPGETVKISCKASGYTFTKYGMNWVKQAPGKGLKWMGWINTYTEEPTYGDDFKGRFAFSLETSASTANLQINNLKSEDTATYFCARFGSAVDYWGQGTSVTVSS
VL: DIVMTQAAFSNPVTLGTSGSISCRSSKSLLHSNGITYLYWYLQKPGQSPQLLIYQMSNLASGVPDRFSSSGSGTDFTLRISRVEAEDVGVYYCAQNLELPSTFGGGTKLEMKR
notes: Fab, periplasmic extract
B15: ING-1 light chain Y37K (Fab, V domains shown)
VH: QIQLVQSGPELKKPGETVKISCKASGYTFTKYGMNWVKQAPGKGLKWMGWINTYTEEPTYGDDFKGRFAFSLETSASTANLQINNLKSEDTATYFCARFGSAVDYWGQGTSVTVSS
VL: DIVMTQAAFSNPVTLGTSGSISCRSSKSLLHSNGITKLYWYLQKPGQSPQLLIYQMSNLASGVPDRFSSSGSGTDFTLRISRVEAEDVGVYYCAQNLELPRTFGGGTKLEMKR
notes: Fab, periplasmic extract
B16: ING-1 light chain S32N (Fab, V domains shown)
VH: QIQLVQSGPELKKPGETVKISCKASGYTFTKYGMNWVKQAPGKGLKWMGWINTYTEEPTYGDDFKGRFAFSLETSASTANLQINNLKSEDTATYFCARFGSAVDYWGQGTSVTVSS
VL: DIVMTQAAFSNPVTLGTSGSISCRSSKSLLHNNGITYLYWYLQKPGQSPQLLIYQMSNLASGVPDRFSSSGSGTDFTLRISRVEAEDVGVYYCAQNLELPRTFGGGTKLEMKR
notes: Fab, periplasmic extract
B17: ING-1 light chain Y54H (Fab, V domains shown)
VH: QIQLVQSGPELKKPGETVKISCKASGYTFTKYGMNWVKQAPGKGLKWMGWINTYTEEPTYGDDFKGRFAFSLETSASTANLQINNLKSEDTATYFCARFGSAVDYWGQGTSVTVSS
VL: DIVMTQAAFSNPVTLGTSGSISCRSSKSLLHSNGITYLYWYLQKPGQSPQLLIHQMSNLASGVPDRFSSSGSGTDFTLRISRVEAEDVGVYYCAQNLELPRTFGGGTKLEMKR
notes: Fab, periplasmic extract
B18: ING-1 light chain S57Q (Fab, V domains shown)
VH: QIQLVQSGPELKKPGETVKISCKASGYTFTKYGMNWVKQAPGKGLKWMGWINTYTEEPTYGDDFKGRFAFSLETSASTANLQINNLKSEDTATYFCARFGSAVDYWGQGTSVTVSS
VL: DIVMTQAAFSNPVTLGTSGSISCRSSKSLLHSNGITYLYWYLQKPGQSPQLLIYQMQNLASGVPDRFSSSGSGTDFTLRISRVEAEDVGVYYCAQNLELPRTFGGGTKLEMKR
notes: Fab, periplasmic extract
B19: ING-1 light chain Y37E (Fab, V domains shown)
VH: QIQLVQSGPELKKPGETVKISCKASGYTFTKYGMNWVKQAPGKGLKWMGWINTYTEEPTYGDDFKGRFAFSLETSASTANLQINNLKSEDTATYFCARFGSAVDYWGQGTSVTVSS
VL: DIVMTQAAFSNPVTLGTSGSISCRSSKSLLHSNGITELYWYLQKPGQSPQLLIYQMSNLASGVPDRFSSSGSGTDFTLRISRVEAEDVGVYYCAQNLELPRTFGGGTKLEMKR
notes: Fab, periplasmic extract
B20: ING-1 light chain R101W (Fab, V domains shown)
VH: QIQLVQSGPELKKPGETVKISCKASGYTFTKYGMNWVKQAPGKGLKWMGWINTYTEEPTYGDDFKGRFAFSLETSASTANLQINNLKSEDTATYFCARFGSAVDYWGQGTSVTVSS
VL: DIVMTQAAFSNPVTLGTSGSISCRSSKSLLHSNGITYLYWYLQKPGQSPQLLIYQMSNLASGVPDRFSSSGSGTDFTLRISRVEAEDVGVYYCAQNLELPWTFGGGTKLEMKR
notes: Fab, periplasmic extract

The text below walks through data of US20110118131A1 (published 2011).

In this test the target is T1, Ep-CAM. Kind of test: Biacore, Fab periplasmic extract. On the technique in general: SPR reads the build-up and loss of mass on a sensor chip optically.
In the case of B1, the binding result was “no binding”. Same read-out and setting: the entry for B2 is “no binding”. Regarding B3, the “fold difference in affinity vs parental ING-1” value (“fold difference in affinity” for short) is 0.06 fold. Take B4: the binding result is reported as “no binding”. As for B5, the “fold difference in affinity” value came to 0.05 fold. Consider B6, for which the binding result is reported as “no binding”. In the case of B7, the “fold difference in affinity” value turned out to be 0.09 fold.

As for B8, the “fold difference in affinity” value was 0.03 fold. The same measure, in the same setting: the value for B9 was 0.02 fold.

As to B10, the binding result is “no binding”.

Regarding B11, the binding result was “no binding”.

Consider B12, for which the binding result is listed as “no binding”. For B13, the “fold difference in affinity” value is 0.05 fold.

B14: the binding result is “no binding”.

For B15, the “fold difference in affinity” value turned out to be 0.02 fold.

Take B16: the binding result is “no binding”.

On to B17, for which the binding result is recorded as “no binding”. The same measure, in the same setting: the entry for B18 is “no binding”. With B19, the “fold difference in affinity” value was 0.01 fold. Take B20: the binding result is recorded as “no binding”.
